In the supplement of paper PMC12764529:
± gives the half width of the 95% confidence interval.

Key:
[1] = folding stability dG unfold from trypsin proteolysis; higher = more stable
Procedure, shortened: (§1)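 Mini-proteins designed to be under 80 residues and free of cysteine were carried in a PA-tagged cDNA display construct and digested with trypsin and with chymotrypsin. Each protease was applied at 11 threefold-diluted concentrations, alongside a no-protease condition, before sequencing. K50 came from Bayesian fitting of the sequencing counts, and unfolding free energy was obtained by comparing it with a sequence-predicted unfolded-state K50 and a shared folded-state K50, for each protease separately or for both together. Designs were retained only if their AlphaFold2 dimer inter-PAE exceeded 15.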

[2] = folding stability dG unfold from chymotrypsin proteolysis; higher = more stable
Procedure, shortened: as §1

[3] = folding stability dG unfold (combined trypsin and chymotrypsin); higher = more stable
Procedure, shortened: as §1

Sequence | folding stability dG unfold [1] [kcal/mol] | folding stability dG unfold [2] [kcal/mol] | folding stability dG unfold [3] [kcal/mol]
MTLEELKAAEGKRLEDVVTVEIVRVERDPETGEEKVVEKRTITFPPGMTLEELKALLESLPAEVRITRVRRS [r1_132_TrROS_Hall] | 1.85 ± 0.041 | 2.27 ± 0.035 | 2.11 ± 0.11
MTTRTLTLTVETSSPEEAEAVREKIRAELGRPDVDVEILEVTFSPDGTVTITIRLAPGVPEERVRALLDALS [r1_485_JUSTAS] | 3.37 ± 0.05 | 2.266 ± 0.0084 | 2.79 ± 0.034
MTVELETTDIEELLARIEEAAAAGKNVTVTAKPEEFEKIRAEGFKIDEILEVKPVPGDDTVVTLINISPEGS [r1_173_JUSTAS] | 1.11 ± 0.038 | 0.699 ± 0.083 | 0.897 ± 0.085
MVVTVETTMIDPEGNPLTKTFTVPSSVVEALKEAGKPLTKEELEKLVKEKVEAEAKKYNVSVEVTLVSFERS [r1_174_JUSTAS] | 2.21 ± 0.17 | 2.7 ± 0.066 | 2.6 ± 0.27
NKIEIKAYKIEETGEIIVEVKIEFPVYDPETKTIKPVVLTITFVGDPEKAIEAIKKFVDFYGGEIDYIDFGS [r1_488_TrMRF] | 2.84 ± 0.099 | 4.5 ± 0.091 | 4.36 ± 0.1
NPIERLKEAIKNAPPGETADIPFPDGMYININIEPEREKEDGKPRRRRKIKIEIYPPDGKPLGSITLEVPYS [r1_386_TrROS] | 1.49 ± 0.084 | 1.23 ± 0.11 | 1.36 ± 0.15
PANVTYEFELADGYRVRVTLNPETGTATVEVEPVPERPPVAPVFIPRTLPEEEREALRRAAEEAGLEVVVGS [r1_242_TrMRF] | 2.42 ± 0.036 | 3.348 ± 0.031 | 3.06 ± 0.054
PAVPKEYTVTLPNATAKVTLEEYEDFVLATAEVTFPDGAKATVTVTLEPTPDGVKRTVTLNIPPGFGAKLGS [r1_153_TrMRF] | 1.17 ± 0.013 | 1.9 ± 0.03 | 1.65 ± 0.06
PDDVYVMFEIEPTNDGIKIPIKVRVPGKPIAEVEVPVDPDDGKIKIMVKFPSPEALDEAEDLLKELGIKPTS [r1_455_TrROS] | 0.319 ± 0.11 | 0.42 ± 0.12 | 0.537 ± 0.21
PIIHFRSPEDAEDFVKELVKKIAKEARKNGDPGQPYEIKIPVVWHDEDSGGPHRFPIEIEIRPDGDIKLTFS [r1_316_TrROS] | 0.782 ± 0.02 | 1.76 ± 0.088 | 1.42 ± 0.062
PKPLIEIERLPEGVLRARAINPVTGAPITITVPVEPGVDGYRLLAEVEAENVPPELAVKTAETVLALLEKKS [r1_403_TrMRF] | -0.115 ± 0.24 | -0.183 ± 0.33 | -0.0268 ± 0.26
PPGYRPIEIEIPMKVESIEEAKEEVLNFAHELAEAFPNITDINVEVDKIDPNNGYIFAKITIYVGDKTITIS [r1_52_TrROS] | 0.424 ± 0.13 | 2.04 ± 0.081 | 1.8 ± 0.43
PPLKIKMERYPNGMMKIDKIEVPNDGSIKLTLKFPNNGRKIERTIPPNAPPGQEKEIWFPFPNGFYRLKIES [r1_43_TrROS] | 0.0375 ± 0.24 | 0.291 ± 0.26 | 0.32 ± 0.23
PSVVYLVLRRPEGGPVRSFRFPVPDRGEPGFEEVLDLIERVTGVSRGALRKNVRIVPVPETGDVLVVADLSS [r1_285_TrMRF] | 2.052 ± 0.014 | 1.52 ± 0.058 | 1.88 ± 0.065
PVKVIEIRVEDPEKTAEEILAELRKKLPEEVKELRLFIVTPDGRVREIEPGETLADLLKPGDTVRIVVVERS [r1_56_TrROS_Hall] | 4.81 ± 0.34 | 5.66 ± 0.45 | > 6
PWVMIPIRVDDPNMTIREIANEVRKALPPGNKNLKISIMWGDGRRYEIDPGETLKDHFPPGDEFHIMVRLPS [r1_56_TrROS] | 1.65 ± 0.02 | 1.3 ± 0.086 | 1.55 ± 0.048
QEIPIKELIKEALENGRPIVFPNGMEITDINPDGSITVKMPYYNPDDPGQPVQPVEMQIKIDEDGRIEVEFS [r1_284_TrROS] | 0.96 ± 0.12 | 1.76 ± 0.054 | 1.45 ± 0.12
SAAEKLPDGTIVIKLTEEEYKKLTEEEIEKIKEELKKEYPENVTVEIKPTKAKKIPTEPFEKGEKYNESSAG [r14_312_JUSTAS] | -0.313 ± 0.37 | -0.267 ± 0.37 | < -1
SAAKKVVTVPLPFLAPENSITPEELVALAVAAFEKLFPGAKIEKFEFNMPVFRLPGDGVIVVVEITDTSSAG [r14_145_TrMRF] | 2.04 ± 0.041 | 2.411 ± 0.024 | 2.32 ± 0.088
SADALKKILSNIHSVEFDPKWGWVTIHFPNKSKIKKALKEGFPRVEMQEDPDGHMMIRIRVPKLPPGQPSAG [r14_115_TrROS] | 1.82 ± 0.057 | 2.65 ± 0.043 | 2.35 ± 0.2
SADIKIDVTYRRSPGEGRYTMTVRVELPDGKKLAEIPITMPADDPGMSPRQMREWARPIVKKLAKEGLISAG [r14_120_TrROS] | 0.537 ± 0.12 | 1.02 ± 0.1 | 0.889 ± 0.08

Sequence | folding stability dG unfold [1] [kcal/mol] | folding stability dG unfold [2] [kcal/mol] | folding stability dG unfold [3] [kcal/mol]
SADKILVRVVFNLGGPPVELTLEADSPEELVEATIAVIKPLFPDADIREVKLFVYNPNTDEVEEFTLTASAG [r14_54_TrMRF] | 2.44 ± 0.043 | 3.341 ± 0.021 | 3.06 ± 0.059
SADKVEIEFPMPESGHPFRIVIDKDGKVEIRHPNNGEEYEFKINGKPIRFPPNMSWDDAIDQLKDALKKSAG [r14_561_TrROS] | 0.905 ± 0.075 | 0.645 ± 0.2 | 0.897 ± 0.19
SADKVMIMFRSPQTFRRILREALKTDKPVYLMFPPKWMDELKELGFPNVKIEPQKNPNGGPYYMFELPVSAG [r14_127_TrROS] | 1.83 ± 0.044 | 1.75 ± 0.12 | 1.79 ± 0.18
SADLKIDDVTVQHYNDYLYVSAEITFPNGWEITVHWMIDPNGKIIDMMIEIRPPPPPVDEEDQEKAQKKSAG [r14_171_TrROS] | 2.47 ± 0.22 | 3.35 ± 0.14 | 3.05 ± 0.25
SADNYFIRIKHKLNGKPRERTYPIDSPEEALDAIKDELQPHFPGAPIDKVKIDVFNPNNGEWQEITLKISAG [r14_54_TrROS] | -0.0876 ± 0.11 | 0.373 ± 0.13 | 0.256 ± 0.13
SADPDEEVTLTLTLPASASPEEVEKVRDEIREAFESLGLEVDVKVEADPETGEVPVTVTLKKEALEKLGSAG [r14_602_TrMRF] | 0.834 ± 0.043 | 1.91 ± 0.06 | 1.73 ± 0.18
SADPSRGMTLTVETKELPGKGLLLVTITTSGTVEEALAYVEELAKELGAEIEILEVNENTIVVKLKVLKSAG [r14_172_JUSTAS] | 1.97 ± 0.026 | 2.766 ± 0.014 | 2.49 ± 0.045
SADPVYYKITITLYIKGDSSSTKTFEIVVPAGDVEKAKEEAIKKIKEETGKPILKVETEVTKVPPEELLSAG [r14_104_JUSTAS] | 3.89 ± 0.4 | 4.35 ± 0.13 | 4.35 ± 0.17
SAEEPSLEELLAAIEEEAEARAREFLERHPDVPPGAVLKVPVTLTYPLRLGDVEYPVTFEAEVDVVVPASAG [r14_486_TrMRF] | 1.74 ± 0.041 | 2.01 ± 0.086 | 1.95 ± 0.1
SAEEVTVKLELEIKIKVSEEEAKALAEELARALKEAGEVKITVEPVEKDEDGYYRIRVTIEVKIKKEDLSAG [r14_413_TrROS_Hall] | 3.57 ± 0.12 | 4.24 ± 0.11 | 4.02 ± 0.095
SAEIAELLKELGFEVEVEKVEVKEVEVTVTDENGKKYKVKFVEVKITVKVTNPDGSKRTFSLDELKKLLSAG [r14_578_TrROS_Hall] | 2.84 ± 0.14 | 3.73 ± 0.11 | 3.45 ± 0.13
SAEKLKKILENIEKVEFDEETGEVYITVKSVEEAEKALKELFPDVEIEKDEDGNYRFRIRVEKLPEELLSAG [r14_115_TrROS_Hall] | 3.66 ± 0.12 | 4.68 ± 0.082 | 4.4 ± 0.084
SAELTIEITVPPGKSVEEVLAEAKALAEELGLEIVEVRVERDENGEVRVTVVIKLPEELTEEQRKALLESAG [r14_110_TrROS_Hall] | 3.06 ± 0.17 | 2.89 ± 0.13 | 3.02 ± 0.21
SAEPEVEYVVIELEVTIELAPGQEAPTADEIAEALRAALEAAGAEITSVEVEVRDGQVTVRVTIVLPKKASA [r9_1134_TrROS_Hall] | 3.53 ± 0.086 | 3.51 ± 0.17 | 3.6 ± 0.16
SAEPPWYWIIKIEFPNGKPIVFMMDDPEEARERFEEKLRKEFPDGMKIESIPITPNDMDSPEEALERIKSAG [r14_900_TrROS] | 1.8 ± 0.27 | 1.62 ± 0.16 | 1.75 ± 0.48
SAETTTETKVEEITLEDKKATINITTYSDGSTEATITIYGNDPKVKEKVKEYIKKKDPNIKITKIETKESAG [r14_611_JUSTAS] | 1.85 ± 0.083 | 3.25 ± 0.043 | 2.92 ± 0.093
SAETVVIPIEAPEDEILAAIKALIDANPDVKITITYADGEKKEITLPDGTKITIERLPDGTLLITVEKVSAG [r14_807_TrROS_Hall] | 3.19 ± 0.23 | 1.74 ± 0.066 | 2.49 ± 0.17
SAETVVNVTISRPPPSKYSVTITIQPPTSSTSLPTTTDLPPGAYEELLAALQKAHPNLTFSTVTETSDGSAG [r14_969_JUSTAS] | 0.614 ± 0.03 | 0.758 ± 0.15 | 0.828 ± 0.12
SAEVEVELVEVNGKLFLVMKVKEKDENGKEREYLVVVEVEFDPETKKLTVKVYVFPSKEEAEEALKKLLSAG [r14_500_TrROS_Hall] | 3.92 ± 0.52 | 5.26 ± 0.45 | > 6
SAEVRARLEYDPVSGDLVLEVERPLPNGDVIRARVDLVNPVLRVEHLPVRDGVPLPRETELDLPADALVSAG [r14_64_TrMRF] | 0.394 ± 0.084 | 0.855 ± 0.039 | 0.766 ± 0.067
SAEVTSTFDPSTGILTVTVKLEDPETGKPIPAEEVAAEVEKEYPNSTILSIEPDPEGYVTITVKVPPELVSA [r9_87_JUSTAS] | 1.81 ± 0.075 | 3.16 ± 0.049 | 2.79 ± 0.039
